Reference: paper PMC3157250 (2011)

B1: HCMV protease (HCMV Pr) (protein)
chain: MTMDEQQSQAVAPVYVGGFLARYDQSPDEAELLLPRDVVEHWLHAQGQGQPSLSVALPLNINHDDTAVVGHVAAMQSVRDGLFCLGCVTSPRFLEIVRRASEKSELVSRGPVSPLQPDKVVEFLSGSYAGLSLSSRRCDDVEAATSLSGSETTPFKHVALCSVGRRRGTLAVYGRDPEWVTQRFPDLTAADRDGLRAQWQRCGSTAVDASGDPFRSDSYGLLGNSVDALYIRERLPKLRYDKQLVGVTERESYVKA

What was measured:
[1] = molecular target: KSHV protease (Kaposi's sarcoma-associated herpesvirus) (UniProt Q2HRB6); details: cited from earlier work
[2] = molecular target: the molecule itself; test: fluorescence-based substrate cleavage kinetics assay

| Molecule | Kd [1] [nM] | Kd [2] [nM] |
| --- | --- | --- |
| KSHV protease (from UniProt Q2HRB6) | 1700 |  |
| B1 |  | 1300 |
